Source: paper PMC7339583 (Alzheimer's Research & Therapy, 2020)
Where “and” joins values, the source holds several entries; their conditions need not be identical. Identical values can stand only once. Entries after “also recorded” stand apart in the source; their conditions may differ.

Assays:
CatD [1] = biological target: T1, CatD (Homo sapiens, UniProt P07339); experiment: Competitive inhibition of CatD activity, fluorogenic substrate (fluorescence dequenching); assay type: biochemical; conditions: mean ± SEM of 4–8 replicates (Fig. 4f)
T1 construct: purchased Enzo Life Sciences
T1 sequence (P07339 65-412): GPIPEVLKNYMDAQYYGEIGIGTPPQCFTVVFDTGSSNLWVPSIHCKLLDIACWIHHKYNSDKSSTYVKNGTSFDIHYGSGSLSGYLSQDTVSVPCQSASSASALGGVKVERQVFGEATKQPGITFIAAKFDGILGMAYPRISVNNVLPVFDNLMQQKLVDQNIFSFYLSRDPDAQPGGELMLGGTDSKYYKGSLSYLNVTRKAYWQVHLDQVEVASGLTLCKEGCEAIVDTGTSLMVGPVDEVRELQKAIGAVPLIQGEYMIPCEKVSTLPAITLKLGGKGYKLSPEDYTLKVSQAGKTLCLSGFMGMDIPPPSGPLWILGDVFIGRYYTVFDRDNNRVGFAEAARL
Procedure: To address this, we tested the extent to which different peptides at identical concentrations inhibited CatD activity monitored with a fluorogenic substrate.
For the determination of the pH dependence of Aβ degradation in soluble brain extracts, freshly harvested brain tissue from 15-day-old mice was dissociated in 20 mM Tris-HCl, pH 7.4 at 4 °C using a Dounce homogenizer, then centrifuged at 1000×g. The resulting supernatant was diluted 1:20 in Britton-Robinson buffers of different pHs, and CatD activity was quantified either using a well-characterized fluorescence polarization-based Aβ degradation assay as described or by monitoring hydrolysis of the CatD-specific fluorogenic substrate, Mca-[…]-Dnp. Kinetic experiments were conducted using freshly prepared, monomeric Aβ peptides separated from aggregated species by size-exclusion chromatography (SEC) and characterized as described. Aβ peptides and PepA were diluted in neutral Dilution Buffer (20 mM Tris, pH 8.0 supplemented with 0.1% BSA), with addition of DMSO as appropriate, and reactions were initiated by transfer into Assay Buffer (60 mM Na-citrate; 80 mM Na2HPO4, pH 4.0; Sigma) supplemented with purified human CatD (Enzo Life Sciences). Where required, reactions were terminated by adjustment to neutral pH with 10× Stop Buffer (0.2 M Tris-HCL, pH 9.5 supplemented with 10 μM PepA). […] Competitive inhibition experiments were conducted using either ELISAs, an Aβ-degradation assay or the fluorogenic substrate.

[2] = biological target: Cathepsin D (purified human CatD, Enzo Life Sciences) (human) (UniProt P07339)
[3] = biological target: T2, insulin-degrading enzyme (IDE) (Mus musculus, UniProt Q9JHR7); experiment: Aβ-degrading activity in soluble brain extracts at neutral pH; assay type: biochemical; conditions: 15-day-old mice; excess insulin; pH 7.5 to 9.5
T2 construct: freshly harvested brain tissue from 15-day-old mice was dissociated in 20 mM Tris-HCl, pH 7.4; from tissue; host or cells: mouse brain, soluble extract (15-day-old mice)
T2 sequence (Q9JHR7 whole entry): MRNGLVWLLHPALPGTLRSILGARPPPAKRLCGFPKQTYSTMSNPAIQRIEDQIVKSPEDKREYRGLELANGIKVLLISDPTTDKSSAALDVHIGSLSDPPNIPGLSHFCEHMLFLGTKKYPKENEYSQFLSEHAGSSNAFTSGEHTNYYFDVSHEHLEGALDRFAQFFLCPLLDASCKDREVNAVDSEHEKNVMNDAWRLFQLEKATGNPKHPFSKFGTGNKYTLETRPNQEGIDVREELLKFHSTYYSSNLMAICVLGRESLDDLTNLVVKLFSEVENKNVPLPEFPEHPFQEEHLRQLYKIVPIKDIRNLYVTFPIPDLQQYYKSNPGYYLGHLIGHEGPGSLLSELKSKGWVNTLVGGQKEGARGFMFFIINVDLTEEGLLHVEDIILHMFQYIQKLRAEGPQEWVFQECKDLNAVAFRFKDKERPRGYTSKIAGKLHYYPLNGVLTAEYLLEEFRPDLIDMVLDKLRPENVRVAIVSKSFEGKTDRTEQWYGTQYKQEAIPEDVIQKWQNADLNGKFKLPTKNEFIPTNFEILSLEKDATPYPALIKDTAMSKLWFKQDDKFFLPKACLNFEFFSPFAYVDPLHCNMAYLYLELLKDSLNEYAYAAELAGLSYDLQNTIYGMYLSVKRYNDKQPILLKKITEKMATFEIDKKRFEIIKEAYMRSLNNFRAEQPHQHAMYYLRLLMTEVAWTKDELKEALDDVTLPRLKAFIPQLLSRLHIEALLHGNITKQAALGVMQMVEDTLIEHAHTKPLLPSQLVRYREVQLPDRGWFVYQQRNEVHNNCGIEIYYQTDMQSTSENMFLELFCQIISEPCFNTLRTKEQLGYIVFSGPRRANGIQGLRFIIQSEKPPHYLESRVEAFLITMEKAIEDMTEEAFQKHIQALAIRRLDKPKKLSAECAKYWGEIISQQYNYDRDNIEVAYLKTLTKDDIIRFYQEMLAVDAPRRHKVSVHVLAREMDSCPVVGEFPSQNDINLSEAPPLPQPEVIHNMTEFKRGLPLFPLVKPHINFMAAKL
Text: (§1) As an initial step towards elucidating the role of CatD in Aβ proteostasis, we quantified rates of Aβ degradation in vitro in soluble brain extracts from CatD-KO mice and wild-type controls as a function of pH, focusing on extracts from 15-day-old mice, due to the premature lethality of CatD-KO mice that occurs by ~ 4 weeks of age. Consistent with previous results, Aβ-degrading activity was present principally within two pH ranges: at neutral pH (pH 7.5 to 9.5) and—to a considerably larger extent—also at acidic pH (pH 2.5 to 4.5) (Fig. 1a). The Aβ-degrading activity at neutral pH was inhibited by excess insulin and reflects the activity of the neutral protease insulin-degrading enzyme (IDE), as shown previously by McDermott and Gibson. […] To extend and confirm these findings, we quantified Aβ degradation at pH 4.0 in soluble brain extracts from CatD-KO and WT mice, as well as heterozygous null (CatD-HET) mice (Fig. 1b). […] Consistent with this, levels of both preprocathepsin D and mature CatD protein in the CatD-HET animals were also determined to be > 50% of WT levels (Fig. 1c, d), with mature CatD protein being reduced by only 26.0 ± 14.2% relative to WT controls (p > 0.05; Fig. 1d). […]

CatD [4] = biological target: T3, CatD (Mus musculus, UniProt P18242); experiment: Aβ-degrading activity in soluble brain extracts at pH 4.0; assay type: biochemical; conditions: 15-day-old mice, 4 replicates
T3 construct: freshly harvested brain tissue from 15-day-old mice was dissociated in 20 mM Tris-HCl, pH 7.4; from tissue; host or cells: mouse brain, soluble extract (15-day-old WT and CatD-HET mice)
T3 sequence (P18242 65-410): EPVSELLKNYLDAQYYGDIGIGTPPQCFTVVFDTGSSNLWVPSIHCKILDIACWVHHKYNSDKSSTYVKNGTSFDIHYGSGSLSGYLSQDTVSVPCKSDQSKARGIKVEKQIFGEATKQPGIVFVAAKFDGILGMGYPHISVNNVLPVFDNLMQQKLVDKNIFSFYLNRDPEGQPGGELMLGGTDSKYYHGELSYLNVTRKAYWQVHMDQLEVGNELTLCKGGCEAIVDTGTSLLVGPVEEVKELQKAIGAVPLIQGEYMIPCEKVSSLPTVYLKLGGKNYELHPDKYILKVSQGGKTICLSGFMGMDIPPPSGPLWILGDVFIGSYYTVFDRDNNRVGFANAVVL
Text: as §1

inhibition of CatD activity at 1 μM peptide (CatD [1]) | Substance | other results
failed to inhibit significantly | Aβ(33–42): short C-terminal fragment of Aβ42 (GLMVGGVVIA; Amyloid-beta protein 42; UniProt P05067 704-713, looked up, fragment) | 
> 90% | rodent Aβ42: full-length murine Aβ ending at position 42 (DAEFGHDSGFEVRHQKLVFFAEDVGSNKGAIIGLMVGGVVIA) | inhibition of CatD activity at 1 μM peptide (CatD [1]; listed as mAβ(1–42)): strongly inhibited

More lines, now with the values behind:

Substance | inhibition of CatD activity at 1 μM peptide (CatD [1]) | other results
Aβ(17–42): α-secretase-derived p3 fragment of APP ending at position 42 (LVFFAEDVGSNKGAIIGLMVGGVVIA; Amyloid-beta protein 42; UniProt P05067 688-713, looked up, fragment) | strongly inhibited and > 90% | 
Aβ(33–40): C-terminal fragment corresponding to Aβ(33–42), ending at position 40 (GLMVGGVV; Amyloid-beta protein 40; UniProt P05067 704-711, looked up, fragment) | modest but statistically significant inhibition | 
full-length murine Aβ (mAβ(1–42)) (from UniProt P12023 672-713) (peptide) |  | inhibition of CatD activity (fluorogenic substrate) by 1 μM peptide [2]: > 90%
insulin |  | inhibition of Aβ-degrading activity at neutral pH in brain extracts [3]: inhibited
pepstatin A |  | inhibition of Aβ-degrading activity in WT and CatD-HET brain extracts (CatD [4]): largely inhibited; also recorded: inhibited almost completely
